Test results: the domain aggregation screens of Martell et al. (2025)

Experiment: soluble fraction after stress (log2 fold change); higher = more stays soluble; pooled small domains, quantitative proteomics
Details: stress: 75 degC
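Also: 20 min heating vs room temperature control held 20 min.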

| Sequence | soluble fraction (log2) |
| --- | --- |
| HMAMESDELETLVDQLIVDHPDEWSRFVGGDDGDRKKMQGFFTGQIMKATKGQADGRAVAQLLGQKSA | 0.0717 |
| HMAMLSKREAEILKLTAKGHSSTDIAQRLTISVNTVEFHRRRIMQKLNAANVAEAVGKAAELGLFF | -2.47 |
| HMAMSAGEVVERIREHVGHPATIKELMRVLAIPNEERYRFRRRIKQLVEAGELIRIRGNRYGLADR | -2.83 |
| HMAMTITKIEKTSQQKIYYFTDSGRVFKKMSDRSATIAVDDRVELEGGVLGSKFFVTANGSRVKVKEV | -2.9 |
| HMAMYSREKLKKLREDRGLTQYELAKIAGISVVTLNKIESSDSAKPFVKTLNKIAQALGVGIDELS | -1.77 |
| HMAMYYVIGGDGQQYGPIDEATVRGWLGEGRVSAASLSFKTGEAQWIPLRDRPELADVLATA | -0.137 |
| HMANKLSEQIYGSILKDIVNGVYAPREFISEAQIAAKYGVSKAPVKEAMHILASEGFLLSYPKRGYMVN | -0.889 |
| HMANKQLQEKLKNYISENGSLSSAAKAIGLSPATLSTYLKDKYEGNVANVETRLTEIFETVEAANNLL | -0.353 |
| HMANKTISMTTLKLVIQQLSKGISRQSISAQYHISRNTIKKYEKRIKAMDMKIEDILKLSDEEISNLLQ | -3 |
| HMANLNFDMSQIVASRYQEKAAELGVTAPSLARTDYNTQEQATYEFVAREIIADYYDDRVAPFNDLIPE | -0.191 |
| HMANNPISMIKIRQILRLHIQGRSKLQIAAQTGISRNTLKKYLKEFEASKLTYDEISELSDKDLEDLFIK | -2.86 |
| HMANTSAVIKQPGLVKLFAQHFVRNGFNAMKAAEAAGFVRPSPTFVRNLADSKPVKDAISELLGPYNDA | -0.183 |
| HMANWRVGQTINALVSDRMPSGGLLLTVGRQSFVTTRDIPVQPGARIMLEVQQVEPKLVLRLVSA | -1.8 |
| HMAPADLSPEERVVLDALALEPVHVDALAAKLGRRSEELLTSLTLMEMRGLAVAHAGSRYSRATMT | -0.14 |
| HMAPEEIPLDRVVRLVEQGRVESIVVTGERLEVTLQNGTVYGSTKENGVGFMETLDRYQVPLEQRDFSYEV | -0.148 |
| HMAPELRSDAQMRRLWALAKENGLDEVGFRAFISDATGREVESTKSLTATEAHRLIEELEAP | -0.0689 |
| HMAPEPFIVQITASSLNVRKGPGTSYAVAQTVSKGQVFTIVQQQGGWGKLKSGAGWISLKYTAR | -1.74 |
| HMAPEQWYVLTSGQLPKGPYRLRHIVAMSKGDNWLVARKGAEQWTPLRHLPEFRQAQEANEYIQAIS | -1.48 |
| HMAPFSGVEPREWDSLVERGRQSGEVHAEDVTHVLRHVELTGDVLTDVQSKMAEHGITIDDA | 0.161 |
| HMAPGASEVPDLTSLPAREALLRLTKLGLLPEMEGTGRLVRQQPAAGTRVPKGSKVHLVFEPG | 0.123 |
| HMAPIEVPYNVFRQQVVEGNVESVATRADTVQGYFETPVTLPARPDAAAAEPVTVERFSTTLPSF | 0.27 |
| HMAPKRIVLRFGKDISDKPIIYYLVKDYDLVINILKANVNPNKEGTLVLELSGENYDKGIEFLISQGVTVQ | -1.8 |
| HMAPKVHLLKVPVDKIREIIGTGGKVIRQITEETGAKIDISDDGSVKVSSPDQSSIDAATTWITGIIAE | -0.0092 |
| HMAPLATLEAGEDGSVKLPNLAGHSIREVAAALGGAKLSLIPIGSGTSWKQTPAPGAVLHSGDTVTVYF | 0.243 |
| HMAPNDELTRQVISVLSGTPQQAFNYKQISKKLNINDSSERRMVSNILRELAGKGEIVEVYQGKYRSKAPA | -0.0901 |
| HMAPPTAEFFAHLPAEALSAVRRSVEEGNARGIDEAILRVETLDGEAGRVLRGLAARYEYGRILELTQR | 0.103 |

| Sequence | soluble fraction (log2) |
| --- | --- |
| HMAPQSAAAILRYLSSGAIRGVGPATAQRIVERFGTDSLEIIQNRPKELAAINGISINKALSISEEYAKQY | -0.741 |
| HMAPREELIAIHEALDKLEREDPQVSQLVKLRYFVGMTMAEAADAMDLKKRAAEALWTYGKAWLHREIKKN | -3.24 |
| HMAPRIVTIQIPVDKIRDVIGPGGKVIRSIIERTGVKIDVEDDGRVNVASADGDSAQRAIAIIQELTAT | -0.101 |
| HMAPSIPSGADIRAAREAAGINLRDFARIVDGPGIAIWSRYETGTPIRVKSISPEVWQKVRDFISQHG | -0.801 |
| HMAPTADSVPFVIRSVVGGAQPFIVLEDGSKLLVGGVYRKYRLVAVENTRIIFEGPRTAIVT | -1.51 |
| HMAPTPAGNLRSLKSEIVNYTRQSSTAYVYTFKDLSSGELYTARASRYYAAAGDTAYISTAAGAITDM | 0.121 |
| HMAPTVPEVVRLEEGAARSAIEAAGLSVGSVEFRASSDPAGTVLATRPIAGRKVRPSSAVDLVLSDGRTP | 0.166 |
| HMAPVEEWAKASVMEDPTLVTETMARIFAQQGQIGKARKAYRHLALTYPAKSTYFAAQLKKLNQR | -0.473 |
| HMAPVLTATVNTTSGKLNMRAAASATSAKLTSIPRGATVTVLEKGTTWSRISYGGYTGYVMTQYLKFD | -0.523 |
| HMAPVVELEDVTIVRGKATLLDRVNWVIDETDRWVIVGPNGAGKTTLLQVVSANLHPTSGKAMILDEVL | 0.176 |
| HMAQILEPSVALKKLLELKQAGFEDETLVGWIRKVEFTRPLTPDDLLEWKGAGISQAVIRAAM | -0.302 |
| HMAQISDEGLLRGLIVEMFEANPAVVEELLGGRDRKKGFVIGQIMKKTKGMANPALLDQLFYEELEKL | -1.1 |
| HMAQTEIPYSEFLREVGNGQIKSVIIEGSEITGFYKTSGTSFNVVAPDDPKLVERLMDQGVEVRAQPT | 0.176 |
| HMAQVVMPNVVGKTEKDATATLEGKNLKVNVEYNLDATSDDGIVKEQSIKSGENIDEGTEITLKVNKV | -2.27 |
| HMAQWGFNGSEAGDLSFQQGDVIEVVEKVKDDWWRGRVLGSTEIGLFPS | -0.309 |
| HMARDDVIRLVQLSLDHLPAKYADALEWKYVEGLSTKEIAARLELGSEAAESLLARARRAFKNDFQEIFES | -1.42 |
| HMAREFPGTIIKRGSRGPDVRWIQQHIGVKLVDGVFGRGTERAVKQFQSRRRLKADGIVGRQTWAAIHN | -1.16 |
| HMARGATELPYSQLLDRVEAGEITTATTQGNTLLSTARDGKRYITYLPLDTMDEVVPRLDAANVEVKTER | 0.103 |
| HMARGLRPVPSVFGLDVRQATRTLYAAGFQVSIARGSDVRTRPAAGTLLRVGSTVQLEMPRMESA | -2.2 |
| HMARGTRTRAKLLAAAEVVFARYGYTEASIERITEEAGVGQGTFYLYFASKLEIFEELVDDLNR | -2.88 |
| HMARLEELSNGSIVEGLLSGEAVTVVSTKWYGSSSMEVFYKTNRGSTGSQILYREDEPSLTVLEKS | -0.831 |
| HMARPLHVDALIHLGTEIGSRVGGAHAGPHLLVAGHSPMSELVYARLLGIPTLGWMRGQLTFVNLSK | 0.0485 |
| HMARSKSRQSSVLESVPGLGPSRRRNLLRHFGGLQGVVKAGVEDLMAVRGISRTLAETVYDHLHPGS | -0.735 |
| HMARTIINLPLRNSVDESYNTTVNILQANGFKEVSYNGETVWKKGTGLLTAMQYIKIEFTDTTLVVSGWVQ | ≥ 1.04 |
| HMARTLSVTVSENYANMRLDSFLFESGLYPSRSKAVKQIESGKVFVNGNEPTKKTIVVANDFIVYEEYAEE | -2.63 |
| HMARTTIATPWDKINDLLQGGLGNGDFGLIFGNPGGGKSWSLVALGGFAVKLGYNVIHYTLE | -0.0148 |

| Sequence | soluble fraction (log2) |
| --- | --- |
| HMASAEDDLTRRARKLLTTSSMLKTLQPDTGERLQWLPQVVRLLAEGVEAPRIVVLIRRAMESG | -1.26 |
| HMASALDFGRYVRSQYSLQEFPLILIAPLNDPHPKEVVRELFNLYLTKPITRSRLFDSLMTVLG | -0.74 |
| HMASDQGAGALREVSAFFEKHGRVPDPDAVDHDEMRLGSIWASIKSAPTDQMRLEDRFGLLD | 0.135 |
| HMASDYYTTTANLNLRSGAGTTYGSLIIIEKGDTVKLLENVNDHWVKIQYDDKIGYVAMSYLLPIE | -1.31 |
| HMASEKSEQLYQQMKLDIAGMPPDTRLPSIRALMRSYSVSQLLIDRTLGRLREEGALRKRFDGLYTYL | -2.42 |
| HMASELQQVQALLESQRYNEALILIETTIGKGASESTELLFARADVFASSGRHDEAEQAYREL | -0.145 |
| HMASELVSADEKYSGLVSYLLGRVVVVDQIDHAIALAKKYRYSLRIVTLDGELLSPGGSMTGGAFKNS | 0.169 |
| HMASEVEVPNVYGMPSSLAERELSAVGLLADYRSRTGTGQQPGTVVHVKPDAGTVVSRGSTVVLFIA | -0.334 |
| HMASFASRAEEVMTKLLANGQPRIKEVADAMHLSSRTLQRRLEREGVSFAELLDRLRKRLAHDMLAHS | -1.51 |
| HMASFGDLSGLKRTYPPQGLPDASRIADFLIARNEGDLSVEQVKALERFLFEHPDHERTARLVAATRVPA | -0.0446 |
| HMASFTDAQALEVKDLYPDWSKIPEGTHLEAGQRVRYNGNLYKVRTGQAHDKQSTWTPTDAASLFEAID | 0.185 |
| HMASIEPLKTSIRIIWYINGEKDSETLLNTPPTAANKANAQKIADMVEQQIQMGIFNRDAVFPSSPKRQ | -1.75 |
| HMASIGVGTIVRVANAVNYNGVKVKAWFNDEGYEVTELSGDRAVLKHNGDLFDAFHVSDLEA | -1.42 |
| HMASINRIENKNGKVVYRIIVSLGYDKQGKKLKKTITYNVNQTATKKQQENEALKYALDIEDKIKNGHD | -1.99 |
| HMASITLDQAKEIALTHAGQTADAVWFEKAEQDYDDGILVYELEFAAKGTEYEYEIDAQTGAIREYKWDD | 0.238 |
| HMASLSEREHDVAVLILQGKTYAEIGQAIFISPRTVEHHVASIRRRLEAKSRSDLIAKLRLTIGGTED | -2.68 |
| HMASPTKQLVLEALRASGQPMSSMELSAQIGVSRATAQRYLSTLASAGEVKIQLRYGTTGRPEQEFLAIE | -1.64 |
| HMASQFSLIVTQADAGMRLDSLLAVSGAYPSRSAAVKQIEAGKVLVNGLARSKRSIVAPGDTIVYEEIP | -0.981 |
| HMASQVERGAVVVTDQRIFFIGVSSEGIEVHGTKIFGMSEKAPLYSHMKGLKKGDSFQFNGLKYVIQDIY | -3.57 |
| HMASRKTERINRLIDVLQHATSRVPASVLSKILGIGERSVRNYVSEVNEQGQFRIDSSSGGYRLVA | -0.492 |
| HMASRTLSYSEFMSRVDSGDVTSVTLDGERIIMRTSNNQEFLSIKPEGEDISERLLAKNIEVRAEAQQ | -0.321 |
| HMASVGTHIKRLRAAKRMTQEELAEQLHVTRQAVSAWETGKALPDVEMLERIAAALDADVTEVIYGA | -0.346 |
| HMATAATGIINNNYVNVRSGPATTYNIVGRLDQGSSIEILGSKNDWYQIKTKQLNGWVKNDFINLQK | -0.283 |
| HMATETELNLQLMRIIDELHTDHNTWGSRKITDYLRLQGYEINRKRIQRLMDVMDIQVVYPK | -2.07 |
| HMATEVEVPDVVGRQMALATQLLEARKLRVNVAEIYDEKTPPGQVVSQSPEAGSSVKEERVVTIYVSR | -0.154 |
